Laboratory results as given in US20140357851A1 (published 2014).

What was measured:
[1] = molecular target: T1, cynomolgus monkey PCSK9, V5- and 6xHis-tagged (cynomolgus monkey, UniProt A0A7N9D9N8 150-747); experiment: BIAcore SPR, antibody amine-coupled to CM5 chip, PCSK9 as analyte, pH 7.4
T1 construct: also called cPCSK9-V5-6xHIS; CynoPCSK9
Method: Briefly, the surface plasmon resonance experiments were performed using Biacore 2000 optical biosensors (Biacore, GE Healthcare, Piscataway, N.J.). […] The concentration of PCSK9 protein was varied at 2 fold intervals (the analyte) and was injected over the immobilized antibody surface (at a flow rate of 100 μl/min for 1.5 minutes).
Antibody binding kinetic parameters including kₐ (association rate constant), kd (dissociation rate constant), and KD (dissociation equilibrium constant) were determined using the BIA evaluation 3.1 computer program (BIAcore, Inc. Piscataway, N.J.).

[2] = molecular target: T1, cynomolgus monkey PCSK9, V5- and …; experiment: KinExA solution equilibrium
From the text: (§1) Briefly, Reacti-Gel™ (6×) (Pierce) was pre-coated with one of human, V5-tagged cyno or His-tagged mouse PCSK9 proteins and blocked with BSA. […] Equilibrium dissociation constant (KD) were obtained from nonlinear regression of the two sets of competition curves using a one-site homogeneous binding model. The KinExA® Pro software was employed in the analysis.

[3] = molecular target: T1, cynomolgus monkey PCSK9, V5- and …; experiment: BIAcore solution equilibrium assay, free PCSK9 read on immobilized 21B12
[4] = molecular target: T2, mouse PCSK9, 8xHis-tagged (mouse, UniProt Q80W65 35-694, limits assumed); experiment: KinExA solution equilibrium
T2 construct: also called mPCSK9-8xHIS; mPCSK9
From the text: as §1

| Binder | Kd [1] [nM] | Kd [2] [nM] | Kd [3] [nM] | fold lower affinity to mouse PCSK9 than to human and cyno PCSK9 [4] [fold] |
| --- | --- | --- | --- | --- |
| 31H4, anti-PCSK9 huIgG4 (antibody, V domains shown) VH: EVQLVESGGGLVKPGGSLRLSCAASGFTFSSYSMNWVRQAPGKGLEWVSSISSSSSYISYADSVKGRFTISRDNAKNSLYLQMNSLRAEDTAVYFCARDYDFWSAYYDAFDVWGQGTMVTVSS VL: QSVLTQPPSVSGAPGQRVTISCTGSSSNIGAGYDVHWYQQLPGTAPKLLISGNSNRPSGVPDRFSGSKSGTSASLAITGLQAEDEADYYCQSYDSSLSGSVFGGGTKLTVLQ | 0.19 | 0.002 |  |  |
| 21B12, anti-PCSK9 huIgG4 (antibody, V domains shown, also called 21B12 IgG4; 21B12.1) VH: QVQLVQSGAEVKKPGASVKVSCKASGYTLTSYGISWVRQAPGQGLEWMGWVSFYNGNTNYAQKLQGRGTMTTDPSTSTAYMELRSLRSDDTAVYYCARGYGMDVWGQGTTVTVSS VL: QSALTQPASVSGSPGQSITISCTGTSSDVGGYNSVSWYQQHPGKAPKLMIYEVSNRPSGVSNRFSGSKSGNTASLTISGLQAEDEADYYCNSYTSTSMVFGGGTKLTVLQ | 0.36 |  | 0.011 |  |
| 16F12, anti-PCSK9 huIgG4 (antibody, V domains shown, also called 16F12 IgG4; 16F12.1) VH: QVHLVESGGGVVQPGRSLRLSCAASGFTFNSFGMHWVRQAPGKGLEWVALIWSDGSDEYYADSVKGRFTISRDNSKNTLYLQMNSLRAEDTAVYYCARAIAALYYYYGMDVWGQGTTVTVSS VL: QSVLTQPPSVSAAPGQKVTISCSGSSSNIGNNFVSWYQQLPGTAPKLLIYDYNKRPSGIPDRFSGSKSGTSATLGITGLQTGDEADYYCGTWDSSLSAYVFGTGTRVTVLQ | 0.87 | 0.016 |  | 10 to 250 |
